Test results reported in US12493026B2, “Tissue engineered 3D models for cancer metastasis” (The Board of Trustees of the Leland Stanford Junior …, priority 2019, dated 2025).

How the values were obtained:
[1] = tested on: breast cancer cell-bone metastasis; details: mouse models; cited from earlier work
[2] = tested on: hMSC-derived osteoblasts; assay: Osteoblast cell proliferation/survival in 3D coculture (bioluminescence imaging); type: cell-based, human; details: 1 μg/mL PTH for 6 hours every 48 hours, FIG. 8(A)
Procedure: (§1) Cocultures of MDA-MB-231 and tissue engineered bone were developed as previously described. Upon starting the coculture, scaffolds were treated with 1 μg/mL of parathyroid hormone (PTH) or PBS control for 6 hours every 48 hours. Breast cancer cell invasion into tissue-engineered bone was monitored using fluorescence microscopy every other day for 7 days. Bone mineralization was monitored using X-ray microcomputed tomography (GE CT120) with setting of 100 kV X-ray voltage, 500 μA current, 50 μm voxel resolution and continuous 360° rotation scanning. Reconstructed 3D μCT images were analyzed for changes in bone mineral density using Parallax Microview. Osteoblast cell proliferation was tracked over the culture period using bioluminescence imaging.

[3] = tested on: MDA-MB-231 breast cancer cells; assay: Breast cancer cell proliferation in 3D coculture (bioluminescence imaging); type: cell-based; details: 1 μg/mL PTH for 6 hours every 48 hours, FIG. 7(B)
Text: To evaluate the effect of breast cancer cell aggressiveness in their invasion rate into bone, MDA-MB-231 breast cancer cells (more aggressive) were compared to MCF-7 breast cancer cells (less aggressive). Tissue engineered bone was generated as described previously. MDA-MB-231 and MCF-7 breast cancer cells were encapsulated into gelatin μRBs forming 2 mm diameter disks, which were introduced into the center of tissue-engineered bone and placed in EMEM growth media for 7 days. Breast cancer invasion into all groups was performed using fluorescence imaging at the interface between the outer and inner disks over 7 days. Cell proliferation was tracked over the culture period using bioluminescence imaging.
as §1, with “Osteoblast cell proliferation was tracked over the culture period using bioluminescence imaging.” left out

[4] = tested on: tissue engineered bone; assay: Breast cancer-induced bone resorption in 3D tri-culture model of osteoclasts, osteoblasts and breast cancer cells (μCT); type: cell-based; details: 14 days
Procedure: In order to assess the effect of breast cancer in promoting osteoclast activation and bone resorption, the bone mineral density of (1) tissue engineered bone alone (No BrCa), (2) tissue engineered bone+MDA-MB-231 breast cancer cells, and (3) tissue engineered bone+MCF-7 breast cancer cells were evaluated. Tissue engineered bone was developed as described previously. After 28 days in osteogenic media, a 2 mm diameter disk was cut out from the center of tissue engineered bone, leaving an empty hole in the center. Prior to introducing breast cancer cells, 1 million osteoclasts were seeded directly over tissue engineered bone and incubated for 1 hour to allow cells to attach. […] Bone mineralization was monitored using X-ray microcomputed tomography (GE CT120) with setting of 100 kV X-ray voltage, 500 μA current, 50 μm voxel resolution and continuous 360° rotation scanning. Reconstructed 3D μCT images were analyzed for changes in bone mineral density using Parallax Microview.
Validation was performed of a 3D tri-culture model that includes osteoclasts, osteoblasts, and breast cancer cells to mimic clinical outcomes effects of parathyroid hormone treatment on breast cancer patients.
Compared to the bi-culture model earlier (osteoblasts+breast cancer cells), this tri-culture model involves additional osteoclasts seeded on top of the scaffolds. […]

[5] = tested on: MDA-MB-231 breast cancer cells; assay: Breast cancer cell invasion into tissue engineered bone in spatially patterned 3D coculture (fluorescence imaging); type: cell-based; details: 1 μg/mL PTH for 6 hours every 48 hours; MDA-MB-231 coculture, 7 days; FIG. 7(A)
Text: To mimic the microanatomical structures of breast cancer invasion into bone through bone marrow/long bone interface (FIGS. 1A and 1B), a “doughnut shape” 3D co-culture model was developed with mesenchymal stem cell (MSC)-formed tissue engineered bone in the outside ring, and breast cancer cells in the center (FIG. 1C). To facilitate imaging the two cell populations, human MSCs were fluorescently labelled red and breast cancer cells were labeled green (GFP). Gelatin μRBs were synthesized as previously reported. Freeze-dried μRBs were rehydrated in PBS containing 0.05% lithium phenyl-2,4,6-trimethylbenzoylphosphinate photoinitiator. […] Breast cancer invasion into tissue engineered bone was monitored using fluorescence imaging at the interface between the outer and inner disks.
as §1, with “Upon starting the coculture, scaffolds were treated with 1 μg/mL of parathyroid hormone (PTH) or PBS control for 6 hours every 48 hours.” left out, “Osteoblast cell proliferation was tracked over the culture period using bioluminescence imaging.” left out

[6] = tested on: tissue engineered bone; assay: Bone mineral density of tissue engineered bone in 3D coculture (μCT); type: cell-based, human; details: 1 μg/mL PTH for 6 hours every 48 hours, FIG. 8(C)
Procedure: Bone mineral density was evaluated over 14 days by comparing tissue engineered bone cultured with (+BrCa) and without (−BrCa) breast cancer cells. Cocultures of tissue engineered bone with MDA-MB-231 were generated as described previously and cultured in EMEM GM for 14 days. Bone mineralization was monitored using X-ray microcomputed tomography (GE CT120) with setting of 100 kV X-ray voltage, 500 μA current, 50 μm voxel resolution and continuous 360° rotation scanning. Reconstructed 3D μCT images will be analyzed for changes in bone mineral density using Parallax Microview.
as §1

B1: parathyroid hormone (protein, UniProt P01270 32-115, looked up)
Parathyroid hormone: SVSEIQLMHNLGKHLNSMERVEWLRKKLQDVHNFVALGAPLAPRDAGSQRPRKKEDNVLVESHEKSLGEADKADVNVLTKAKSQ
modifications: Parathyroid hormone
notes: parathyroid hormone; drug that reduces breast cancer-bone metastasis in vivo
breast cancer cell-bone metastasis [1]: specifically reduce
osteoblast cell survival in the presence of breast cancer invasion [2]: enhances
breast cancer cell proliferation [3]: does not impact
breast cancer-induced bone resorption (bone loss) ([4]; continuous PTH treatment (cPTH)): does not reduce
breast cancer-induced bone resorption (bone loss) ([4]; intermittent PTH treatment (iPTH)): can reduce
breast cancer cell invasion into tissue engineered bone [5]: significantly reduces
breast cancer cell-induced reduction in bone mineralization (bone mineral density) [6]: prevents
